The supplement of paper PMC7877785
± gives the uncertainty stated by the source.

Experiment: self-splicing fitness, log relative to wild type (ln ratio); higher = more splicing; Tetrahymena group I intron in knt gene, E. coli kanamycin selection, DiMSum; sequences stand for … in CUCUCU…GGAGGGAAAAGUUAUCAGGCAUGCACCUGGUAGCUAGUCUUUAAACCAAUAGAUUGCAUCGGUUUAAAAGGCAAGACCGUCAAAUUGCGGGAAAGGGGUCAACAGCCGUUCAGUACCAAGUCUCAGGGGAAACUUUGAGAUGGCCUUGCAAAGGGUAUGGUAAUAAGCUGACGGACAUGGUCCUAACCACGCAGCCAAGUCCUAAGUCAACAGAUCUUCUGUUGAUAUGGAUGCAGUUCACAGACUAAAUGUCGGUCGGGGAAGAUGUAUUCUUCUCAUAAGAUAUAGUCGGACCUCUCCUUAAUGGGAGCUAGCGGAUGAAGUGAUGCAACACUGGAGCCGCUGGGAACUAAUUUGUAUGCGAAAGUAUAUUGAUUAGUUUUGGAGUACUCGUGGUCG
Summary of the method: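 Colonies from six replicate transformations of E. coli BL21(DE3) were pooled and amplicon-sequenced on an Illumina HiSeq 2500. The library placed an intron with all eight P1ex-region nucleotides randomised inside the knt kanamycin-resistance gene on pET-22b(+), and cells grew overnight at 37°C or 30°C on LB agar with or without 25 μg/mL kanamycin (plus 100 μg/mL carbenicillin, 50 μM IPTG, 0.2% rhamnose). Fitness is the DiMSum error-weighted combination of wild-type-normalised replicate fold changes, kanamycin versus none.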

Sequence	self-splicing fitness (ln) (30 °C)	self-splicing fitness (ln) (37 °C)
CCCGAGCAAUAUUACGAUGU	-3.46 ± 0.25	-2.13 ± 0.27
CCCGAGCAAUAUUACGCCAC	-3.54 ± 0.26	-2.84 ± 0.31
CCCGAGCAAUAUUACGCUCU	–	-2.7 ± 0.29
CCCGAGCAAUAUUACGCUGA	-3.44 ± 0.35	-2.26 ± 0.2
CCCGAGCAAUAUUACGCUGC	-2.93 ± 0.21	-2.63 ± 0.3
CCCGAGCAAUAUUACGGAGU	-3.46 ± 0.25	-2.87 ± 0.22
CCCGAGCAAUAUUACGGAUU	-4.16 ± 0.18	-2.55 ± 0.17
CCCGAGCAAUAUUACGGCAU	-3.28 ± 0.37	-1.85 ± 0.32
CCCGAGCAAUAUUACGGGAC	-3.05 ± 0.18	-1.89 ± 0.19
CCCGAGCAAUAUUACGGUCA	-4.25 ± 0.46	-2.57 ± 0.26
CCCGAGCAAUAUUACGGUUG	-3.65 ± 0.15	-1.81 ± 0.11
CCCGAGCAAUAUUACGUAUU	-3.8 ± 0.17	-3.48 ± 0.24
CCCGAGCAAUAUUACGUCAU	-3.95 ± 0.31	-2.99 ± 0.26
CCCGAGCAAUAUUACGUCUG	-3.73 ± 0.29	-2.32 ± 0.26
CCCGAGCAAUAUUACGUGUU	-3.93 ± 0.15	-3 ± 0.17
CCCGAGCAAUAUUACGUUCG	-4.22 ± 0.42	-2.55 ± 0.3
CCCUAGCAAUAUUACGAACA	–	-2.55 ± 0.42
CCCUAGCAAUAUUACGAAGG	-4.03 ± 0.21	-2.71 ± 0.23
CCCUAGCAAUAUUACGAGCG	-2.86 ± 0.21	-1.13 ± 0.19
CCCUAGCAAUAUUACGAUUG	-3.45 ± 0.21	-2.38 ± 0.21
CCCUAGCAAUAUUACGCAGA	-3.68 ± 0.31	-1.73 ± 0.15
CCCUAGCAAUAUUACGCCAC	-2.88 ± 0.27	-1.6 ± 0.26
CCCUAGCAAUAUUACGCCCA	-3.12 ± 0.25	-3.76 ± 0.42
CCCUAGCAAUAUUACGCUCG	-2.25 ± 0.2	-2.85 ± 0.48

Sequence	self-splicing fitness (ln) (30 °C)	self-splicing fitness (ln) (37 °C)
CCCUAGCAAUAUUACGCUUA	-3.78 ± 0.18	-2.86 ± 0.12
CCCUAGCAAUAUUACGCUUC	-2.66 ± 0.1	-2.36 ± 0.16
CCCUAGCAAUAUUACGGACC	-0.914 ± 0.3	–
CCCUAGCAAUAUUACGGAGG	-2.87 ± 0.15	-2.77 ± 0.26
CCCUAGCAAUAUUACGGCAU	-3.41 ± 0.24	-1.94 ± 0.17
CCCUAGCAAUAUUACGGGGG	-3.85 ± 0.24	-3.36 ± 0.3
CCCUAGCAAUAUUACGUCAA	-3.16 ± 0.32	-3.46 ± 0.39
CCCUAGCAAUAUUACGUCCG	-4.17 ± 0.26	-2.57 ± 0.23
CCCUAGCAAUAUUACGUCCU	-4.12 ± 0.37	-2.06 ± 0.28
CCCUAGCAAUAUUACGUCUC	-3.71 ± 0.41	-2.67 ± 0.27
CCCUAGCAAUAUUACGUUAU	-4.33 ± 0.26	-2.76 ± 0.19
CCGAAGCAAUAUUACGACUA	-2.1 ± 0.37	-2.65 ± 0.36
CCGAAGCAAUAUUACGAUAG	-0.89 ± 0.061	-0.284 ± 0.08
CCGAAGCAAUAUUACGCAAU	-3.92 ± 0.4	-1.94 ± 0.23
CCGAAGCAAUAUUACGCACA	-3.87 ± 0.37	-2.59 ± 0.28
CCGAAGCAAUAUUACGCACU	-2.98 ± 0.26	-2.68 ± 0.44
CCGAAGCAAUAUUACGCGAG	-2.65 ± 0.11	-2.08 ± 0.15
CCGAAGCAAUAUUACGGAGA	-2.52 ± 0.25	-2.68 ± 0.34
CCGAAGCAAUAUUACGGAUG	-2.94 ± 0.19	-0.504 ± 0.095
CCGAAGCAAUAUUACGGCCG	-0.396 ± 0.099	-0.442 ± 0.12
CCGAAGCAAUAUUACGGUAU	-3.13 ± 0.25	-3.64 ± 0.36
CCGAAGCAAUAUUACGGUGA	–	-3.25 ± 0.43
CCGAAGCAAUAUUACGGUGC	-3.26 ± 0.3	-2.26 ± 0.39
CCGAAGCAAUAUUACGUGAA	-3.64 ± 0.16	-2.82 ± 0.14
